Measured values: US20160075790A1 (Bristol-Myers Squibb, published 2016)
“And” between values parts separate entries of the source, which are not always exact repeats. Equal values may be shown once.

T1: human CD40L, membrane-bound on cells (human, UniProt P29965 1-261)
T1 sequence: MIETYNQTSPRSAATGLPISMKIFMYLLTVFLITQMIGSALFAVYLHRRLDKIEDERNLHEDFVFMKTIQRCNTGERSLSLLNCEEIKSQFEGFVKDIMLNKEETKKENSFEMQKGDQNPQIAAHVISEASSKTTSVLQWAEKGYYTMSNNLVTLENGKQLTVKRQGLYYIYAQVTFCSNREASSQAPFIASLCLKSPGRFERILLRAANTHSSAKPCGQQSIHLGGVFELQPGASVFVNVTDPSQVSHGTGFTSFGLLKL

T2: human isoleucine zipper-CD40L (IZ-hCD40L) (human, UniProt P29965 113-261)
T2 sequence: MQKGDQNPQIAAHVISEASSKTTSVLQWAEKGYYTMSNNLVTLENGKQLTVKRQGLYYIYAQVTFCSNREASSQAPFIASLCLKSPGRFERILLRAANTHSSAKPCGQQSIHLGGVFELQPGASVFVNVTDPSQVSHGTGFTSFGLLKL


What was measured:
[1] = target: T1, human CD40L, membrane-bound on cells; assay: cell-based or functional assay
[2] = target: T2, human isoleucine zipper-CD40L …; assay: cell-based or functional assay

| Binder | CHO-hCD40L-driven DC Activation IL-12 EC50 [1] [nM] | CHO-hCD40L-driven Human B Cell Proliferation EC50 [1] [nM] | T-B cell MLR EC50 [1] [nM] | hIZCD40L-driven Human B Cell Proliferation EC50 [2] |
| --- | --- | --- | --- | --- |
| BMS2h-116-1312 (other) VL: DIQMTQSPSSLSASVGDRVTITCRASQPIGPDLLWYQQKPGKAPKLLIYQTSILRSGVPSRFSGSGSETDFTLTISNLQPEDLATYYCQQYWAFPVTFGKGTKVVIKR | 112 | 530 | 234 | 23 nM |
| BMS2h-572-632 (other) VH: EVQLLESGGGLVQPGGSLRLSCAASGFTFKWQLMGWVRQAPGKGLEWVSGIEGPGDVTYYADSVKGRFTISRDNSKNTLYLQMNSLRAEDTAVYYCVKVGKDSKSDYRGQGTLVTVSS | 241 |  |  | 117 nM |
| BMS2h-572-6 (other) VH: EVQLLESGGGLVQPGGSLRLSCAASGFTFNWQLMGWVRQAPGKGLEWVSGIEGPGDVTYYADSVKGRFTISRDNSKNTLYLQMNSLRAEDTAVYYCVKVGKESNSDYRGQGTLVTVSS |  | > 7000 | > 7000 | 208 nM |
| BMS2h-572-634 (other) VH: EVQLLESGGGLVQPGGSLRLSCAASGFTFNWELMGWARQAPGKGLEWVSGIEGPGDVTYYADSVKGRFTISRDNSKNTLYLQMNSLRAEDTAVYYCVKVGKDSRSDYRGQGTLVTVSS | 77 |  |  | 31 nM |
| BMS2h-572-635 (other) VH: EVQLLESGGGLVQPGGSLRLSCAASGFTFNWELMGWARQAPGKGLEWVSGIEGPGDVTYYADSVKGRFTISRDNSKNTLYLQMNSLRAEDTAVYYCVKVGKDSKSDYRGQGTLVTVSS | 52 |  |  | 29 nM |
| BMS2h-572-9 (other) VH: EVQLLESGGGLVQPGGSLRLSCAASGFTFNWQLMGWVRQAPGKGLEWVSGIEGPGDVTYYADSVKGRFTISRDNSKNTLYLQMNSLRAEDTAVYYCAKVGKESNSDYRGQGTLVTVSS | > 2000 |  |  | 324 nM and 243 nM |
| BMS2h-572-11 (other) VH: EVQLLESGGGLVQPGGSLRLSCAASGFTFNWQLMGWVRQAPGKGLEWVSGIEGPGDVTYYADSVKGRFTISRDNSKNTLYLQMNSLRAEDTAVYYCVKVGKESNSDYRGQGTQVTVSS |  | > 7000 |  | 140 nM |
| BMS2h-572-14 (other) VH: EVQLLESGGGLVQPGGSLRLSCAASGFTFNWQLMGWVRQAPGKGLEWVSGIEGPGDVTYYADSVKGRFTISRDNTKNTLYLQMNSLRAEDTAVYYCVKVGKESNSDYRGQGTLVTVSS | 882 | > 7000 |  | 134 nM |
| BMS2h-572-15 (other) VH: EVRLLESGGGLVQPGGSLRLSCAASGFNFNWQLMGWIRQAPGKGLEWVSGIEGPGDVTYYADSVKGRFTISRDNSKNTLYLQMNSLRAEDTAVYYCAKVGKESNSDYRGQGTLVTVSS | 876 | > 7000 |  | 168 nM |
| BMS2h-719-2 (other) VH: EVQLLESGGGLVQPGGSLRLSCAASGFTFKRYEMMWVRQAPGKGLEWVSSISSDGSFTYYADSVKGRFTISRDNSKNTLYLQMNSLRAEDTAVYYCAEPFTEFDYWGHGTLVTVSS | 196 | > 7000 |  | 82 nM |
| BMS2h-719-202 (other) VH: EVQLLESGGGLVQPGGSLRLSCAASGFTFKKYEMMWVRQAPGKGLEWVSSISSDGSFTYYADSVKGRFTISRDNSKNTLYLQMNSLRAEDTAVYYCAEPFTEFDYWGHGTLVTVSS | 79 |  |  | 29 nM |
| BMS2h-116-1313 (other) VL: DIQMTQSPSSLSASVGDRVTITCRASQPIGPDLLWYQQKPGKAPKLLIYQTSILRSGVPSRFSGSGSETDFTLTISNLQPEDFATYYCQQYWAFPVTFGRGTKVVIKR |  |  | 258 |  |
| BMS2h-719-225 (other) VH: EVQLLESGGGLVQPGGSLRLSCAASGFTFNTYEMQWVRQAPGKGLEWVSSISSDGSFTYYADSVKGRFTISRDNSKNTLYLQMNSLRAEDTAVYYCAEPFTEFDYWGHGTLVTVSS | 176 |  |  | 253 nM and 198 nM |
| BMS2h-719-226 (other) VH: EVQLLESGGGLVQPGGSLRLSCAASGFTFNKYEMMWARQAPGKGLEWVSSISSDGSFTYYADSVKGRFTISRDNSRNTLYLQMNSLRAEDTAVYYCAEPFTEFDYWGHGTLVTVSS | 812 |  |  | 164 nM and 247 nM |
| BMS2h-492 (other) VL: DIQMTQSPSSLSASVGDRVTITCRASQAIELNLEWYQQKPGKAPKLLIYDASMLQSGVPSRFSGSGSGTDFTLTISSLQPEDFATYYCQQYDVYPPTFGQGTKVEIKR |  |  |  | > 7000 nM |
| BMS2h-492-5 (other) VL: DIQMNQSPSSLSASVGDRVSITCRASQAIEHNLEWYQQKPGKAPKLLIYDASMLQSGVPSRFSGSGSGTDFTLTISSLQPEDFATYYCQQYDAYPPTFGQGTKVEIKR |  |  |  | 2300 nM |
| BMS2h-492-6 (other) VL: DIQMTQSPSSLSASVGDRVTITCRASQAIESNLEWYQQKPGKAPKLLIYDASMLQSGVPSRFSGSGSGTDFTLTISSLQPEDFATYYCQQYDVYPPTFGQGTKVEIKR |  |  |  | 6300 nM |
| BMS2h-492-7 (other) VL: DIQMTQSPSSLSASVGDRVTITCRASQAIEHNLEWYQQKPGKAPKLLIYDASMLQSGVPSRFSGSGSGTDFTLTISSLQPEDFATYYCQQYDAYPPTFGQGTKVEIKR |  |  |  | 1900 nM |
| BMS2h-494 (other) VL: DIQMTQSPSSLSASVGDRVTITCRASQSIDEDLEWYQQKPGKAPRLLIYSSSWLQSGVPSRFSGSGSGTDFTLTISSLQPEDFATYYCQQYFQYPPTFGQGTKVEIKR |  |  |  | 6100 nM |
| BMS2h-494-2 (other) VL: DIQMTQSPSSLSASVGDRVTITCRASQSIEEDLEWYQQKPGKAPRLLIYSSSWLQSGVPSRFSGSGSGTDFTLTISSLQPEDFATYYCQQYFQYPPTFGHGTKVEIKR |  |  |  | 4800 nM |
| BMS2h-494-3 (other) VL: DIQMTQSPSSLSASVGDRVTITCRASQSIDEDLEWYQQKPGKAPRLLIYSSSWLQSGVPSRFSGSGSGTDFTLTISSLQPEDFATYFCQQYFQYPPTFGQGTKVEIKR |  |  |  | > 7000 nM |
| BMS2h-572 (other) VH: EVQLLESGGGLVQPGGSLRLSCAASGFTFNWQLMGWVRQAPGKGLEWVSGIEGPGDVTYYADSVKGRFTISRDNSKNTLYLQMNSLRAEDTAVYYCAKVGKESNFDYRGQGTLVTVSS |  |  |  | > 7000 nM |
